Source: the supplement of paper PMC10724198
± gives the standard deviation of the averaged measurements.

Test system: Saccharomyces cerevisiae
Experiment: protein stability index of tFT-peptide fusion (C-terminal peptide) (PSI (0-1 scale)); higher = more stable (slower turnover)
Details: genetic background: wild type; temperature: 30 C
Procedure: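 Multiplexed protein stability (MPS) profiling in S. cerevisiae. Random 12-aa peptides (tFT-X12 library) are fused to the C-terminus of a sfGFP-mCherry tandem fluorescent timer, after mCherry and a GGGS linker. Cells are FACS-sorted into 8 mCherry/sfGFP bins and deep-sequenced. The protein stability index (PSI) is the read-weighted bin average, scaled from 0 (unstable) to 1 (stable). Only peptides with >10 reads are reported; cells were grown at 30 °C in SC-His with glucose.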
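Note: PSI is a weighted mean of sequencing reads over stability bins, variants kept only with over 10 reads, mCherry proximal and sfGFP distal, peptide attached via GGGS linker.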

Row | Sequence | protein stability index
1 | SRFHVLLPPPPS | 0.674 ± 0.035
2 | KKKKTKKKEQKE | 0.693 ± 0.012
3 | RGPPRRLQCLGR | 0.7121 ± 0.003
4 | VRVSSSDILICL | 0.675 ± 0.079
5 | PCSSFPTFPRRL | 0.715 ± 0.017
6 | GCPGGGRPGPRA | 0.7052 ± 0.0064
7 | FPRPACRSTHIL | 0.671 ± 0.065
8 | LHRFYVGQLVVN | 0.522 ± 0.0092
9 | KKRNMRINSKKQ | 0.7 ± 0.022
10 | KKKKKKKKTKKR | 0.637 ± 0.044
11 | LPFLVSPPLFRT | 0.664 ± 0.063
12 | SPAFPPPPGFPP | 0.69 ± 0.04
13 | VRCWEDGFLDSS | 0.7293 ± 0.0042
14 | VAPPVLCRCSLR | 0.6481 ± 0.0052
15 | RFLVFLLNFISI | 0.564 ± 0.037
16 | CKLDVMSRSFVG | 0.664 ± 0.0089
17 | SRPPHPSPPRTF | 0.675 ± 0.03
18 | GAVGGGSAADPE | 0.667 ± 0.11
19 | PPPPARSPLTPL | 0.725 ± 0.15
20 | PPLLRSPPPLSP | 0.675 ± 0.022
21 | CFLFSFSLFPFV | 0.618 ± 0.066
22 | WRRCSGGGVGSP | 0.655 ± 0.084
23 | RKNKQVDLCHRE | 0.676 ± 0.037
24 | GPVSVTFGGTYC | 0.678 ± 0.046
25 | WFPRLGKRSRGS | 0.69 ± 0.025

Row | Sequence | protein stability index
26 | SPPSPPPSPPTL | 0.77 ± 0.092
27 | RQRSKEPVVQAY | 0.654 ± 0.046
28 | RGKKGQKEPAEK | 0.688 ± 0.048
29 | ERSKTMVAGGEE | 0.686 ± 0.062
30 | KIRNLELNVQTN | 0.688 ± 0.075
31 | DSLTKYSAKEYR | 0.5777 ± 0.0052
32 | KKYIEKKFNIQK | 0.664 ± 0.03
33 | PPSLPLLPPHPP | 0.562 ± 0.011
34 | QIKGNNLNIDKG | 0.6721 ± 0.0031
35 | LYVIGGTDLVGG | 0.72 ± 0.04
36 | AIIERVEQIVTA | 0.522 ± 0.052
37 | FSFIPIRRYPVM | 0.733 ± 0.15
38 | AVLGRRSQHASA | 0.6832 ± 0.0036
39 | TVAEGKKMRGKV | 0.672 ± 0.036
40 | GGVGGLGTLCGG | 0.661 ± 0.051
41 | FGFSSGRVRQRV | 0.754 ± 0.011
42 | LPSPPPRPPHHR | 0.672 ± 0.025
43 | EPWTEQPKLDSR | 0.936 ± 0.091
44 | VPSPHLQPTVSP | 0.654 ± 0.0074
45 | VIARALGLFLSD | 0.693 ± 0.035
46 | FLSHISVPRGKT | 0.773 ± 0.034
47 | RLGLQWGEFGTL | 0.72 ± 0.033
48 | KKEEIIIGGKKI | 0.663 ± 0.043
49 | KNKKKNTIKKNK | 0.684 ± 0.018
50 | GKAKGRESGDRQ | 0.678 ± 0.039

Row | Sequence | protein stability index
51 | GSVMGRRTGAFV | 0.653 ± 0.041
52 | LSGVRFDSVFEH | 0.729 ± 0.016
53 | KIYKKSKKKKEI | 0.688 ± 0.061
54 | ACSHFLEEFCFF | 0.75 ± 0.046
55 | KRTRRADVGKED | 0.65 ± 0.064
56 | YIIVSQRENRRQ | 0.758 ± 0.095
57 | LGDVRRENKQLP | 0.6981 ± 0.003
58 | ARLGNPHFKIFS | 0.684 ± 0.089
59 | KQRKIKKNIINH | 0.707 ± 0.015
60 | FVFGVCGGGGIG | 0.671 ± 0.11
61 | RRWCATLGRDRV | 0.7029 ± 0.0051
62 | CAVLGGGVVWGA | 0.668 ± 0.028
63 | CFPPLPPPPPPS | 0.736 ± 0.0077
64 | DPGTNGGCAPPV | 0.676 ± 0.0014
65 | SPLALATPLSDP | 0.699 ± 0.039
66 | ACPGGPFALRSH | 0.666 ± 0.029
67 | ATLDVTALRQES | 0.636 ± 0.011
68 | KIINKKKKRKKN | 0.665 ± 0.023
69 | WGCGGGRDGCGV | 0.647 ± 0.095
70 | VDRDWFLKRDSH | 0.711 ± 0.031
71 | DGGVGGRAPRVR | 0.744 ± 0.097
72 | RGCTVHSLNSSY | 0.6757 ± 0.0022
73 | LSLASTGVDSGG | 0.743 ± 0.03
74 | EAVCHQFVELIG | 0.605 ± 0.02
75 | PLSPSCCLRRPL | 0.777 ± 0.24

Row | Sequence | protein stability index
76 | DGRMGAGVAGTG | 0.636 ± 0.069
77 | KGDAQASSDLTL | 0.691 ± 0.014
78 | GAATKRKYTINT | 0.665 ± 0.013
79 | DGASAARQGGAR | 0.7171 ± 0.00082
80 | GGTGGRRGVGHV | 0.655 ± 0.022
81 | PLPPPPPPPPPT | 0.681 ± 0.023
82 | ETRKKKLTNSRT | 0.622 ± 0.071
83 | WGGVGLWGGWDG | 0.723 ± 0.058
84 | RKKKKKKKKKSN | 0.631 ± 0.089
85 | AGLSVRSILLSI | 0.599 ± 0.039
86 | RSRYRLFRADLS | 0.753 ± 0.062
87 | WDSGRWSCLRGW | 0.698 ± 0.044
88 | KKEKKKQKRNNN | 0.782 ± 0.013
89 | LAKRSKCCNRSR | 0.686 ± 0.018
90 | TGPIIPSDNRFL | 0.692 ± 0.04
91 | GGVGGFGGAGLG | 0.65 ± 0.023
92 | KDRKKYIMTKPS | 0.627 ± 0.051
93 | LFFLFSPFSRLP | 0.786 ± 0.089
94 | SATPFSTEVCPL | 0.631 ± 0.028
95 | LLPPRPSSSPPS | 0.704 ± 0.026
96 | KKEKSQTKKQNI | 0.684 ± 0.12
97 | VPCLVHEVYDEV | 0.732 ± 0.029
98 | PSPGPPHPPPLF | 0.713 ± 0.063
99 | EVESYVVSGDRW | 0.608 ± 0.042
100 | DSDSVMPFERLM | 0.659 ± 0.0095

Row | Sequence | protein stability index
101 | FFVVGEEFCVSV | 0.649 ± 0.054
102 | GGRRTLFCRFSY | 0.702 ± 0.017
103 | PPLSSPPSLSPP | 0.703 ± 0.049
104 | KKKKKEQKTNQT | 0.697 ± 0.022
105 | KKKIKNKTNEEK | 0.647 ± 0.038
106 | NKVISETKKLDN | 0.64983 ± 0.00019
107 | KFARHVLIQSHV | 0.559 ± 0.04
108 | KITKKNRSWKTS | 0.623 ± 0.019
109 | SYKIDYIDIRVG | 0.59 ± 0.029
110 | RSRCHPRLPRAV | 0.707 ± 0.03
111 | YTTFNLSQTLNG | 0.674 ± 0.023
112 | PPPPLRSPPRSF | 0.713 ± 0.02
113 | EGWVVYFEEDLE | 0.735 ± 0.017
114 | LSPLTPAPLPPP | 0.6675 ± 0.0058
115 | PPSPLPPAPPSP | 0.668 ± 0.029
116 | CGGAADWRDWGW | 0.775 ± 0.086
117 | FECDYLLCGAGL | 0.744 ± 0.029
118 | GNFAGLTRDRGP | 0.674 ± 0.052
119 | SSVGLRTRRTAR | 0.638 ± 0.081
120 | GGGRGGGFSGGV | 0.655 ± 0.014
121 | GYNCKWGRTNVT | 0.6782 ± 0.0024
122 | VPPPTRRTPPAP | 0.734 ± 0.052
123 | ILGGRIRLVGRK | 0.708 ± 0.033
124 | DIVVGANISSIN | 0.641 ± 0.02
125 | PFSPLPGPPPPP | 0.733 ± 0.04

Row | Sequence | protein stability index
126 | PPLSPPPSASSS | 0.738 ± 0.065
127 | LGAHLSTAPPPP | 0.655 ± 0.022
128 | KIKNKYKEKKKK | 0.67 ± 0.0079
129 | ECGLGGCGGLGV | 0.705 ± 0.03
130 | DCSCCGGVSCVV | 0.639 ± 0.014
131 | QRKLTFIKRYRV | 0.67 ± 0.041
132 | LISISNINEGVI | 0.688 ± 0.037
133 | CLGGRRVCRCKG | 0.631 ± 0.054
134 | PPPGAPAPPPSS | 0.692 ± 0.12
135 | EARMGVGRCGTG | 0.661 ± 0.022
136 | LASEPLPPYPPS | 0.704 ± 0.052
137 | PLLPPALCPFPP | 0.685 ± 0.029
138 | PCLVLSLYSDLP | 0.68 ± 0.032
139 | ERIGVEERKGLE | 0.658 ± 0.021
140 | PSPLPSPPPPPP | 0.625 ± 0.0074
141 | CSLTVGYNRHDV | 0.635 ± 0.00084
142 | DRCSRFRCFFVG | 0.6 ± 0.031
143 | LRGGGKRREVMG | 0.702 ± 0.099
144 | PPPRPRSLTCPA | 0.73 ± 0.14
145 | RERKEVGRRRIG | 0.604 ± 0.022
146 | PPLRQLTIPLTH | 0.723 ± 0.0088
147 | LLSPAPPLPPAP | 0.666 ± 0.057
148 | RWGWWGYRGGVP | 0.744 ± 0.025
149 | LSPPPPRPTLQF | 0.731 ± 0.0092
150 | VCPPSPTLKPPP | 0.624 ± 0.011

Row | Sequence | protein stability index
151 | GHVEGPGDAESS | 0.701 ± 0.071
152 | ASSLPIWLVWWL | 0.536 ± 0.02
153 | CSPLNFGNGLLL | 0.584 ± 0.013
154 | GGRRGCFARWAR | 0.697 ± 0.046
155 | GLDRCFTSFYSI | 0.702 ± 0.059
156 | EGCYGVRGNTLH | 0.612 ± 0.017
157 | KVIRVEALEILV | 0.544 ± 0.023
158 | VLCRVALWGVGG | 0.653 ± 0.02
159 | WFLSGGCLFCWR | 0.714 ± 0.061
160 | PPPPVFPQPTPA | 0.6425 ± 0.0023
161 | DLSDGHFSTASP | 0.678 ± 0.0069
162 | DIRGGDMGEWRE | 0.683 ± 0.023
163 | PPRPSLLPRALF | 0.642 ± 0.041
164 | KKEERTQKNEKK | 0.654 ± 0.011
165 | PPVFYAPLVTER | 0.7 ± 0.035
166 | EKIKKTEKNKNK | 0.6755 ± 0.0042
167 | VCLVNWLCFFCV | 0.529 ± 0.037
168 | PEKRDIQSGIVD | 0.696 ± 0.024
169 | RDRVSASILVLP | 0.6892 ± 0.0056
170 | VNATDYDGQPIT | 0.679 ± 0.11
171 | RSSGAFKVCTDR | 0.684 ± 0.019
172 | WADAAYLGCWWD | 0.737 ± 0.072
173 | ATPYGLTPNYSG | 0.676 ± 0.15
174 | LTVVNFFPLGSP | 0.67 ± 0.064
175 | STPSPPPAPRSP | 0.708 ± 0.015

Row | Sequence | protein stability index
176 | IKGKNTGKERER | 0.6176 ± 0.00089
177 | LGVIHPSVYFCL | 0.5416 ± 0.0023
178 | VRIIVVDLGGRR | 0.684 ± 0.0082
179 | AERCVLEKSPRL | 0.743 ± 0.064
180 | LLCTSSGYWAWK | 0.699 ± 0.0087
181 | SRLNRRKGNGRK | 0.656 ± 0.083
182 | PASSSFVCAVSR | 0.783 ± 0.091
183 | PRETRPDEAQRG | 0.726 ± 0.069
184 | RIKEYITDEKNR | 0.674 ± 0.056
185 | ACGDRGGRCSEG | 0.678 ± 0.089
186 | GGCGGVGGWGVA | 0.712 ± 0.066
187 | LPGAEASRCTST | 0.657 ± 0.041
188 | KNWRMKKDHKQA | 0.657 ± 0.024
189 | GLLEGGLWVWGL | 0.692 ± 0.04
190 | FPPPPLYFPFPL | 0.693 ± 0.017
191 | AGGGLGGVGDVV | 0.681 ± 0.052
192 | GGGGVVVVQGAG | 0.725 ± 0.058
193 | ISEINQKGKNRE | 0.675 ± 0.037
194 | FARPQCLPVPLP | 0.6555 ± 0.001
195 | KKKKKKKKKKRK | 0.685 ± 0.01
196 | ALLMDENTRVLF | 0.649 ± 0.051
